Test results from paper PMC11544209.

Biological target: T1, PsCas9 WT (UniProt PDB:8UMF_1 1-1462)
T1 sequence: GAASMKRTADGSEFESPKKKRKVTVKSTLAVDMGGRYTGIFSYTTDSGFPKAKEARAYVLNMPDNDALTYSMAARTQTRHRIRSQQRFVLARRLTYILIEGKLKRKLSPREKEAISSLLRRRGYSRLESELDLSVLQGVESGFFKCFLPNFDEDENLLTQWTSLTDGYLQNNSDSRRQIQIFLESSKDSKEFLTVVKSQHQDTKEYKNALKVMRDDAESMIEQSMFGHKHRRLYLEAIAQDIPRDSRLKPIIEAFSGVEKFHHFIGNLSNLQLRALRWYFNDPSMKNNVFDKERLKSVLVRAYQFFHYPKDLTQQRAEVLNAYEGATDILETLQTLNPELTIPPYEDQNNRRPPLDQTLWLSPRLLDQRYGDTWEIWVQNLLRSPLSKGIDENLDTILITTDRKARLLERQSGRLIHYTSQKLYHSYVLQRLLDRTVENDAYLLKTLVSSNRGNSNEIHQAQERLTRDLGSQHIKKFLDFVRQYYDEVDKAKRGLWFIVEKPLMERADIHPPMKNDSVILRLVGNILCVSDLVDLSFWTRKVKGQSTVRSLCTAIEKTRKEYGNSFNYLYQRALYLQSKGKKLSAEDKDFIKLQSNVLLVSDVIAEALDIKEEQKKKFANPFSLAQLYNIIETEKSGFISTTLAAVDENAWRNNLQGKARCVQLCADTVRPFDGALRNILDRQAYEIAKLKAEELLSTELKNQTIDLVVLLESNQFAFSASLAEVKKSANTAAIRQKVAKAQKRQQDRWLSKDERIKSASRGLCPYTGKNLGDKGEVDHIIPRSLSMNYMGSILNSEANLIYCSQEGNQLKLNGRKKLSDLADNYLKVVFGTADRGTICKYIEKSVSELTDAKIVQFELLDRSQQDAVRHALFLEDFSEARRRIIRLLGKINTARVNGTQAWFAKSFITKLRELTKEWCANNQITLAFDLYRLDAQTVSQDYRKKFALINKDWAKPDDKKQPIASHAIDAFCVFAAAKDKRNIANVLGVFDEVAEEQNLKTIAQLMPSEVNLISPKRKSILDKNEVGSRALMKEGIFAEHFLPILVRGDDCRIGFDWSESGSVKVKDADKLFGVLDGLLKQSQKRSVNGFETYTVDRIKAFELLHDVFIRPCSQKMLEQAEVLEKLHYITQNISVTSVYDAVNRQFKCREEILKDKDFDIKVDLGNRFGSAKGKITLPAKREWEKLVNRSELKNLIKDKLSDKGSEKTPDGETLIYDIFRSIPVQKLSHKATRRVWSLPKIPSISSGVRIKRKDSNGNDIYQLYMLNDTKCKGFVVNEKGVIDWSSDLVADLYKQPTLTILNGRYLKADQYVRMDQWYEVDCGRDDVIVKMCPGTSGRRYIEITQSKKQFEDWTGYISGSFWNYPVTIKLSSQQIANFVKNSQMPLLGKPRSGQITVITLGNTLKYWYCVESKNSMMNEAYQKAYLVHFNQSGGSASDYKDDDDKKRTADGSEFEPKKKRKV
Assay: fluorescence polarization

B1: EMX1a 38 bp target + PsCas9 original EMX1a sgRNA (mixed)
DNA 1: TGTATGTCACCTCCAATGACTAGGGTGGTACACAAACA
DNA 2: TGTTTGTGTACCACCCTAGTCATTGGAGGTGACATACA
Kd: ~112 nM
